Experimental data as given in US11655301B2, “Carrier-binding agent compositions and methods of making and using the same” (Mayo Foundation for Medical Education and Research, priority 2016, dated 2023).

Tests used:
[1] = target: T1, ABX (Homo sapiens, UniProt P02768); test: Bio-Layer Interferometry (BLItz) binding of antibody to ABX; conditions: for binding affinity to ABX (in words): BLItz; for dependence of binding affinity to ABX on pH / temperature: pH 3, 5, 7, 9, BEV also RT, 37° C., 58° C.
T1 construct: purchased Celgene Corporation, Summit, N.J
Experimental: The association and dissociation constants were calculated using the BLItz software.

[2] = test system: Daudi human lymphoma cells; test: Daudi lymphoma xenotransplant in athymic nude mice; format: in vivo; conditions: ABX 30 mg/kg, rituximab 12 mg/kg
Experimental: Tumor response was determined at day 7 post-treatment by the percent change in tumor size from the first day of treatment.
(§1) To test tumor efficacy, 1×10^6 A375 human melanoma cells were implanted into the right flank of athymic nude mice (Harlan Sprague Dawley, Indianapolis, Ind.). […] Tumor size was monitored 3 times/week and tumor volume was calculated with the following equation: (length×width^2)/2. Mice were sacrificed when the tumor size equaled 10% of the mouse body weight or about 2500 mm^3. The day 7 percent change from baseline was calculated as follows: [(tumor size on treatment day-tumor size on day 7)/tumor size on treatment day]×100.
On day 7 post treatment, tumors were measured and the percent change in tumor size from baseline was calculated.

[3] = target: T2, CD20 (Homo sapiens, UniProt P11836); test: Blocking of fluorescent anti-human CD20 labeling of Daudi cells (flow cytometry); format: cell-based; conditions: Daudi cells pretreated before CD20 labeling
T2 construct: endogenous in cells; host or cells: Daudi human B-cell lymphoma cells
T2 sequence (P11836 1-297): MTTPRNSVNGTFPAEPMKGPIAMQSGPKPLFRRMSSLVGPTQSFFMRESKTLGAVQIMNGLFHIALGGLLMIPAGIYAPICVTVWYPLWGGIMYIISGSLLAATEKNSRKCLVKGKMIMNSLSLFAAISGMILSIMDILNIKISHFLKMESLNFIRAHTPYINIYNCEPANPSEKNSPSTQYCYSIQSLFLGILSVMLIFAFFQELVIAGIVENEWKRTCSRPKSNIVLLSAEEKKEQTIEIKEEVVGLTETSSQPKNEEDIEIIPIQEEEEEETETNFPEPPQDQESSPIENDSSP
Source text: CD20 positive Daudi lymphoma cells were labeled with fluorescent tagged anti-human CD20 or isotype matched control in panel F and A, respectively, and analyzed by flow cytometry.

[4] = test system: A375 human melanoma cells; test: A375 human melanoma xenograft in athymic nude mice; format: in vivo; conditions: BEV 12 mg/kg, ABX 30 mg/kg, tumors about 700 mm^3 at treatment
Experimental: In vivo experiments were performed at least 2 times. The number of mice required for those experiments was determined by power analysis. Mouse tumors were measured 2-3 times/week and mice were sacrificed when the tumor was 10% by weight. […] The end point of the mouse studies was median survival. Kaplan-Meier curves were generated and Mantle-Cox test was performed to determine significance of median survival between treatment groups. The in vitro results presented are representative of at least 5 repeated experiments. Statistical analyses of in vitro and in vivo percent change from baseline experiments were done using the Student's t-test.
as §1
The ABC complex was tested in the A375 melanoma xenotransplant model relative to each drug alone and AB160.
The effect of AB225 was assayed in animals as set forth above.

[5] = test system: A375 human melanoma cells; test: A375 xenograft, BEV pretreatment follow up study; format: in vivo, athymic nude mice; conditions: day 7 and day 10 post treatment; BEV 12 mg/kg, ABX 30 mg/kg
Source text: Data is represented at day 7-post and day 10-post treatment as tumor volume in mm^3. FIGS. 11A-E track tumor size over 10 days. […] See also FIG. 11 F and FIG. 11 G.

[6] = target: T1, ABX; test: Binding of cisplatin to ABX (free cisplatin in supernatant by HPLC); format: physicochemical; conditions: ABX 5 mg/ml, cisplatin 0.5 mg/ml, room temperature, 30 minutes

Compound	binding affinity to ABX (in words) [1]	dependence of binding affinity to ABX on pH / temperature [1]	median survival [2]	blocking of CD20 binding of fluorescent anti-CD20 [3]	median survival [4]	average tumor volume [5]	cisplatin remaining in the supernatant [6]
rituximab	picomolar range	decreased with higher pH	12 days	specifically blocked			
bevacizumab	picomolar range	both pH- and temperature-dependent			14 days	not therapeutic	
N.N.[Cl][Pt][Cl] [cisplatin]							40%
